How the values were obtained:
[1] = target: hRSV FTM- NN protein (membrane anchorless form of the Long fusion protein, 70 kDa) (hRSV strain Long); test: Alphascreen competition: FTM- NN (0.3 nM) bridged by biotinylated Synagis Fab and 101F Fab acceptor beads
[2] = target: F protein of Long escape mutant R7C2/1 (K272E in antigenic site II) (hRSV strain Long escape mutant); test: cell-based or functional assay
[3] = target: F protein of Long escape mutant R7C2/11 (antigenic site II) (hRSV strain Long escape mutant); test: cell-based or functional assay
[4] = target: F protein of hRSV strain A-2 (hRSV strain A-2); test: cell-based or functional assay
Sequence of F protein of hRSV strain A-2 (hRSV strain A-2) (chain, as listed by the source limits assumed): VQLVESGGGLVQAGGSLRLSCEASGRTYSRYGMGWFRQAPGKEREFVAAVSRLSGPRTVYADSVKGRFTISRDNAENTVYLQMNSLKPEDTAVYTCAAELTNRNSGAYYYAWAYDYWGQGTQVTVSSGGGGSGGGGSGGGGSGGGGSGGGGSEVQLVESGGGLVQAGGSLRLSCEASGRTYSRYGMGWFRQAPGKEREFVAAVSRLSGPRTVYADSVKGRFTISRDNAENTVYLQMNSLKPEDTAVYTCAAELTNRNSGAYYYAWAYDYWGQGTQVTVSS

[5] = target: F protein of hRSV strain B-1 (hRSV strain B-1); test: cell-based or functional assay
Sequence of F protein of hRSV strain B-1 (hRSV strain B-1) (chain, as listed by the source limits assumed): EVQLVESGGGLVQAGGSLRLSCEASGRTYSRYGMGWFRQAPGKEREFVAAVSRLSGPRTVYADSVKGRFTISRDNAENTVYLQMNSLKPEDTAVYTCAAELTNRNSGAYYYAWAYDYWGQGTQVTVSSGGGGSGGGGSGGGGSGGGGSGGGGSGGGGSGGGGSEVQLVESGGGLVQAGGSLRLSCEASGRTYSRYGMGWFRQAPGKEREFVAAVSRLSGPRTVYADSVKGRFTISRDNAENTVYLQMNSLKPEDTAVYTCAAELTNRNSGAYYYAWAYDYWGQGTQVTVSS

[6] = target: F protein of hRSV strain Long (hRSV strain Long); test: cell-based or functional assay
[7] = target: hRSV FTM- NN protein (membrane anchorless form of the Long fusion protein, 70 kDa) (hRSV strain Long); test: SPR (Biacore T100), FTM- NN amine-coupled, 1:1 Langmuir fit

Sequence of F protein of Long escape mutant R7C2/1 (K272E in antigenic site II) (hRSV strain Long escape mutant) (chain, as listed by the source): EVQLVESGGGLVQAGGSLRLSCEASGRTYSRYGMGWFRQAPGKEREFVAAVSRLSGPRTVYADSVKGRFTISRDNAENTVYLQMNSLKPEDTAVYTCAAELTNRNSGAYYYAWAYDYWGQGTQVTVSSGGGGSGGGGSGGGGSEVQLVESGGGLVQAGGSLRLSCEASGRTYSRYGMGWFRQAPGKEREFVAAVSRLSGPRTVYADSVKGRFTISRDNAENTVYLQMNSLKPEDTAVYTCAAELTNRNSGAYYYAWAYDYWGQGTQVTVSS

| Substance | IC50 [1] [nM] | neutralization of escape mutant virus, IC50 [2] [nM] | neutralization of escape mutant virus, IC50 [3] [nM] | RSV neutralization IC50 [4] [nM] | Neutralization IC50 (first assay) [5] [nM] | Neutralization IC50 (second assay) [5] [nM] | RSV neutralization IC50 [5] [nM] | Neutralization IC50 (first assay) [6] [nM] | Neutralization IC50 (second assay) [6] [nM] | RSV neutralization IC50 [6] [nM] | Kd [7] [nM] | koff [7] [s⁻¹] | kon [7] [M⁻¹ s⁻¹] |
| --- | --- | --- | --- | --- | --- | --- | --- | --- | --- | --- | --- | --- | --- |
| 101F Fab | 1.12 |  |  |  |  |  |  |  |  |  |  |  |  |
| Numax Fab (Motavizumab or MEDI-524) | 0.086 |  |  |  |  |  |  |  |  |  |  |  |  |
| Synagis® (Palivizumab, humanized monoclonal antibody) |  | > 200 | > 200 | 2.5 | 2.1 | 2.9 | 1.7 | 7.3 | 6 | 4 | 0.64 | 0.00018 | 280000 |
